The data set can be described thus: yeast display, Sf9 membrane polyspecificity reagent, FACS + sequencing; frameworks hold sequencing errors. In a few lines:
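Galactose-induced (36–48 hours) yeast carrying a synthetic nanobody display library were exposed to 10% biotinylated, detergent-solubilized Sf9 membrane reagent at 4 °C for 1 hour. FACS followed streptavidin microbead enrichment, using low and high (top ~1%) gates for expression (anti-HA) and reagent binding (streptavidin). Colony PCR, MiSeq 2 × 250 sequencing and CDR-length filtering followed. Labels for polyreactivity reflect the gate of origin.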
As to “QVQLVESGGGLVQAGGSLRLSCAASGFTFRANAMGWYRQAPGKERELVAAISQSGGRTNYADSVKGRFTISRDNAKNTVYLQMNSLKPEDTAVYYCAAPYSAKELYYRMDYWGQGTQVTVSS”, the “polyreactivity (PSR sort gate)” value is recorded as “high polyreactivity”.
Take “QVQLVESGGGLVQAGGSLRLSCAASGFTFRANGMGWYRQAPGKERELVATITSGGTTNYADSVKGRFTISRDNAKNSVYLQMNSLIPEDTAVYYCAKRFGPAYFRLYDYWGQGTQVTVSS”: the “polyreactivity (PSR sort gate)” value is given as “low polyreactivity”.
As for “QVQLVESGGGLVQAGGSLRLSCAASGFTFRANGMGWYRQAPGKETELVATITSGGTTNYADSVKGRFTISRDNAKNTVYLQMNSLKPEDTAVYYCAKRFGPAYFRLYDYWGQGTQVTVSS”, the “polyreactivity (PSR sort gate)” value was “low polyreactivity”.
For the sequence “QVQLVESGGGLVQAGGSLRLSCAASGFTFRAYAMGWYRQAPGKEREFVAAISYSGGSTYYADSVKGRFTISRDNAKNTVDLQMNSLKPEDTAVYYCATVLYSVPRYNYWGQGTQVTVSS”, the “polyreactivity (PSR sort gate)” value was “high polyreactivity”.
“QVQLVESGGGLVQAGGSLRLSCAASGFTFRDNAMGWYRQAPGKEWELVAAITWDGGSTYYADSVKGRFTISRDNAKNTVYLQMNSLKPEDTAVYYCAASRYYPRYFKRYYYWGQGTQVTVSS”: the “polyreactivity (PSR sort gate)” value was “high polyreactivity”.
Consider “QVQLVESGGGLVQAGGSLRLSCAASGFTFRFYAMGWYRQAPGKERELVAAISRRGGTTYYADSVKGRFTISRDNAKNTVYLQMNSLKPEDTAVYYCNKDWTYEHGYWGQGTQVTVSS”, for which the “polyreactivity (PSR sort gate)” value is reported as “high polyreactivity”.
As to “QVQLVESGGGLVQAGGSLRLSCAASGFTFRGNAMGWYRQAPGKERELVATISRGGNTNYADSVKGRFTISRDNAKNTVYLLMNSLKPEDTAVYYFAAVSYIRSKVSYNYWGNGTQVTVSS”, the “polyreactivity (PSR sort gate)” value was “low polyreactivity”.
Then “QVQLVESGGGLVQAGGSLRLSCAASGFTFRGNAMGWYRQAPVKERELVAAITSSDDSTYYADSVKGRFTISRDLSKNTVYLQMNSLKPEDTAVYYCAAVANGYWTYEYWGQGTQVTVSS”, with “low polyreactivity”.
Then “QVQLVESGGGLVQAGGSLRLSCAASGFTFRGYAMGWYRQAPGKERELVAAISKRGGSTYYADSVKGRFTISRDNAKNTVYLQMNSLKPEDTAVYYCNADYYIVGPPYAPTREDYWGQGTQVTVSS”, with “high polyreactivity”.
Then “QVQLVESGGGLVQAGGSLRLSCAASGFTFRGYAMGWYRQAPGKERELVAAISWRGGSTYYADSVKGRFTISRDNAKNTVYLQMNSLKPEDTAVYYCAARYGRSYFGYYYWGQGTQVTVSS”, with “high polyreactivity”; and “QVQLVESGGGLVQAGGSLRLSCAASGFTFRGYAMGWYRQAPGKERELVAVINTDGSTNYADSVKGRFTISRDNAKNTVYLQMNSLKPEDTAVYYCNAVRSSIGSDNDYWGQGTQVTVSS”, with “low polyreactivity”; and “QVQLVESGGGLVQAGGSLRLSCAASGFTFRIYAMGWYRQAPGKERELVAAISWAGGSTFYADSVKGRFTISRDNAKNTVYLQMNSLKPEDTAVYYCAADYGYFEYDYWGQGTQVTVSS”, with “low polyreactivity”.
For “QVQLVESGGGLVQAGGSLRLSCAASGFTFRKNAMGWYRQAPGKERELVAAISSGTSTYYADSVKGRFTISRDNAKNTVYLQMNSLKPEDTAVYYCAAARYRTDDYWGLGTQVTVSS”, the “polyreactivity (PSR sort gate)” value is on record as “high polyreactivity”.
The value for “QVQLVESGGGLVQAGGSLRLSCAASGFTFRKYAMGWYRQAPGKERELVAAISSSGTSTYYADSVKGRFTISRDNAKNTVYLQMNSLKPEDTAVYYCAADRYYWGRYTLNYWGQGTQVTVSS” was “low polyreactivity”; that for “QVQLVESGGGLVQAGGSLRLSCAASGFTFRNYAMGWYRQAPGKERELVAAISKRGGNTYYADSVKGRFTISRDNAKNTVYLQLYSLKREDTAVYYCAADYQFSQDVWHFGYWGLGTQVTVSS” was “high polyreactivity”; that for “QVQLVESGGGLVQAGGSLRLSCAASGFTFRNYAMGWYRQAPGKERELVAAISKRGGNTYYADSVKGRFTISRDNAKNTVYLQMNSLKPEDTAVYYCAAQRYTGQGSGYGYWGQGTQVTVSS” was “high polyreactivity”.
